Source: patent publication EP4636087A1, “ANTI-GPA33 ANTIBODY AND UTILIZATION THEREOF” (Kagoshima University, priority 2022, dated 2024)

Key:
Wnt/β-catenin signal [1] = assay: Wnt/β-catenin reporter EC50 in 293STF cells expressing GPA33; assay type: cell-based, human
Method: (§1) The Wnt/β-catenin signal promoting activity of the anti-GPA33 antibody scFv-Rspo fragment fusion recombinant prepared in Example 18 was measured as follows. ONE-Glo™ + Tox Luciferase Reporter and Cell Viability Assay (Promega) was used for the measurement. […] The cells into which each vector was introduced were cultured for 2 days in DMEM medium containing 10% FBS (Nichirei), and then the cells were collected and seeded at 100 µL/well on a CulturPlate-96 (PerkinElmer). The next day, 100 µL of (1) control medium or (2) medium containing recombinant Rspo1FL-Fc or various anti-GPA33 antibody scFv-Rspo fragment fusion recombinant proteins prepared in Example 10 (10-fold serial dilution between 10000 and 0.001 ng/mL, final concentration 5000 to […]) was added to each well. […] The fluorescence value was measured using a Microplate Reader SH-9000 (CORONA). 100 µL of ONE-Glo (trademark) Reagent (Promega) was added to the plate and incubated at room temperature for 3 min, after which the luminescence value was measured using a NIVO microplate reader (PerkinElmer). […] Samples with low activity for which the EC50 value could not be determined were marked NC. […]
(§2) The Wnt/β-catenin signal promoting activity of the anti-GPA33 antibody scFv-Rspo fragment-Fc conjugate R1CRD-hFcm-tCAP-G17 prepared in Example 19 was measured as shown in Example 20. […]

Wnt/β-catenin signal [2] = assay: Wnt/β-catenin reporter EC50 in 293STF cells expressing MOG; assay type: cell-based, human; conditions: NC = low activity, EC50 could not be determined (taken as >30 nM for the ratio)
Method: as §1, §2

[3] = tested on: Mouse small intestinal organoids; assay: Mouse small intestinal organoid culture; assay type: cell-based; design: key: those in which clear proliferation was observed are indicated with ○; those in which proliferation was observed but to a weak extent are indicated with △; those in which no proliferation was observed are indicated with ×
Method: Mouse small intestinal organoid culture using anti-GPA33 antibody scFv-Rspo fragment fusion (Example 18) and anti-GPA33 antibody scFv-Rspo fragment-Fc conjugate (Example 19) was performed as shown below. Mouse small intestinal organoids (VERITAS ST-70931) were maintenance cultured in ENR medium obtained by adding 2 µg/mL of the recombinant Rspo1FL-Fc prepared in Example 10 to EN medium (DMEM/F-12 containing penicillin/streptomycin, 10 mM HEPES, GlutaMAX, 1xN2, 1xB27 (all Gibco), 1 mM N-acetylcysteine (FUJIFILM Wako Pure Chemical), 50 ng/mL mouse EGF (Gibco), and 100 ng/mL mouse Noggin (PEPROTECH)), or ENR+WA medium (DMEM/F-12 containing penicillin/streptomycin, 10 mM HEPES, GlutaMAX, 1xN2, 1xB27 (all Gibco), […] N-acetylcysteine (FUJIFILM Wako Pure Chemical), 50 ng/mL mouse EGF (Gibco), and 100 ng/mL mouse Noggin (PEPROTECH), 10% Afamin/Wnt3a CM (MBL), and 500 nM A-83-01 (FUJIFILM Wako Pure Chemical)). Mouse small intestinal organoids were collected with Gentle Cell Dissociation Reagent (STEMCELL), resuspended in EN medium and Matrigel (Corning), and seeded onto 48-well plates. 250 µL of (1) EN medium, (2) EN medium containing recombinant Rspo1FL-Fc (20 ng/mL or 1 µg/mL) prepared in Example 10, or (3) EN medium containing anti-GPA33 antibody scFv-Rspo fragment fusion or anti-GPA33 antibody scFv-Rspo fragment-Fc conjugate ([…]) was added to each well. The medium was changed once every three days, and the cells were cultured for six days.
Comparing organoids on the first day (Day 1) and the fifth day (Day 5) after seeding, those in which clear proliferation was observed are indicated with ○, those in which proliferation was observed but to a weak extent are indicated with △, and those in which no proliferation was observed are indicated with ×. Samples that were not evaluated are indicated with ND.

EC50 (Wnt/β-catenin signal [1]; 293STF cells expressing GPA33, Afamin/Wnt3a 883 ng/mL, 18 hr): 0.085 nM
EC50(MOG)/ EC50(GPA33) (Wnt/β-catenin signal [1]; ratio, NC assumed >30 nM): 47.53
EC50 (Wnt/β-catenin signal [2]): 4.04 nM
B1: R1CRD-hFcm-tCAP-G17: conjugate of azidized R1CRD-Fcm and DBCO-G17 scFv by tCAP and click reaction (conjugate)
chain: SRGIKGKRQRRISAEGSQACAKGCELCSEVNGCLKCSPKLFILLERNDIRQVGVCLPSCPPGYFDARNPDMNKCIKCKIEHCEACFSHNFCTKCKEGLYLHKGRCYPACPEGSSAANGTMECSSPAEPKSADKTHTCPPCPAPEAEGAPSVFLFPPKPKDTLMISRTPEVTCVVVDVSHEDPEVKFNWYVDGVEVHNAKTKPREEQYNSTYRVVSVLTVLHQDWLNGKEYKCAVSNKALPASIEKTISKAKGQPREPQVYTLPPSREEMTKNQVSLTCLVKGFYPSDIAVEWESNGQPENNYKTTPPVLDSDGSFFLYSKLTVDKSRWQQGNVFSCSVMHEALHNHYTQKSLSLSPGK
scFv: QMQLVQSGGGLVKPGGSLRLSCAASGFTFSSYNMNWVRQAPGKGLEWVSSISSSGDFMYYADSVKGRFTISRDNAKNSLYLQMSSLRAEDTAVYYCAREGPGTPFDYWGQGTLVTVSSGGGGSGGGGSGSTGSAIQLTQSPSSLSASVGDRVTITCRASQSISSFLNWYQHKPGKAPKLLIYVASSLQSGVPSRFSGSGSGTDFTLTISSLQPEDFATYYCQQSHNTPYTFGQGTKLEIKEPRTPRPCLVPRGSHHHHHHGA
organoid proliferation (Day 1 vs Day 5) ([3]; 0.2 ng/ml): ×
organoid proliferation (Day 1 vs Day 5) ([3]; 0.8 ng/ml): ×
organoid proliferation (Day 1 vs Day 5) ([3]; 1.4 ng/ml): ×
organoid proliferation (Day 1 vs Day 5) ([3]; 2 ng/ml): ×
organoid proliferation (Day 1 vs Day 5) ([3]; 20 ng/ml): Δ
organoid proliferation (Day 1 vs Day 5) ([3]; 100 ng/ml (conjugate section head, or cells marked *)): ○
organoid proliferation (Day 1 vs Day 5) ([3]; 1000 ng/ml): ○
